The series in a line: label from the status in PepcDB records.

On to “MALRQKLGWSEGDLMRSDAKPCSRLMKQTAAIFTVGGALGFWVLCRLHYGPRITVPRSLRWAGCGALSVSTSTAMLVRLFSPECEPQNIAAYDNIKTPQASLP”, for which the protein production entry is “failed”. Turning to “MALSKRELDELKPWIEKTVKRVLGFSEPTVVTAALNCVGKGMDKKKAADHLKPFLDDSTLRFVDKLFEAVEEGRSSRHS”, the protein production result is given as “not failed”. With “MALVDDGSQPLVSVIIASYNHEKYIEASIASVAAQTYRNVELLVVDDGSSDGSVELLRGLQAKYGFDLRVQQNQGLSRTLNEAITRARGNLIVPFGSDDIMLPQRLEKQVAHMWDKPEVGICAGNIEIIDSNGRVMPGKEQRKRDLPFRRLDFDDLFLDRKPGPMAPTLMFRREALEKVGGFDPDIRLEDVYIELAVTKAGYVIDILGEVLAQYRKHPTNTYKNARFMVDNVFKTYSQFSDHPDYEQVIMRFRNSMFLKCSNRDKVLARELLSGLPLKYWNEKTFRGIARLFFS”, the protein production result is reported as “failed”. As to “MALVPVYCLCRQPYNVNHFMIECGLCQDWFHGSCVGIEEENAVDIDIYHCPDCEAVFGPSIMKNWH”, the protein production result is recorded as “not failed”. As for “MALVRKDVVKLAAPIFVEQLFVTLMGMINTMMAGHIGKEAVSAIGMIDSINNIFIAFFSALAVGGTVVVAQYIGQNNIKKANESTKQALYSTIIIAFVITIIMAILKGPLLGFLFGSAEKEVILDANSYFGITLLTYPLITIDLVSNGILRGAGDTKTPMKISILMNVLNVAFTALFIWGIKINGTVVVKSLGITGAALGIATARTIGGIIILIVMVRGSRIVQLKKLTEFKFDMTLLKPIFGIGVPASVESLLFNGGKLIMQIFIVGMGTVAMASNTIVNSISNFLNIPGNSLVIAATALVGQHMGRDDDKGAEKCLSYITKLSTVLLAIVGILSILFSRHLPSPVYWK”, the protein production result is “failed”. The same measure for “MALVSADSRIAELLTELHQLIKQTQEERSRSEHNLVNIQKTHERMQTENKISPYYRTKLRGLYTTAKADAEAECNILRKALDKIAEIKSLLEERRIAAKIAGLYNDSEPPRKTMRRGVLMTLLQQSAMTLPLWIGKPGDKPPPLCGAIPASGDYVARPGDKVAARVKAVDGDEQWILAEVVSYSHATNKYEVDDIDEEGKERHTLSRRRVIPLPQWKANPETDPEALFQKEQLVLALYPQTTCFYRALIHAPPQRPQDDYSVLFEDTSYADGYSPPLNVAQRYVVACKEPKKK”: “failed”; for “MAMRELSQLNRDSDGDEEVWVKHYSSNHQILLVGEGDFSFSHSLATLFGSASNICASSLDSYDVVVRKYKKARSNLKTLKRLGALLLHGVDATTLHFHPDLRYRRFDRVIFNFPHAGFHGRESDSSLIRKHRELVFGFFNGASRLLRANGEVHVSHKNKAPFSEWNLEELASRCFLVLIQRVAFEKNNYPGYENKRGDGRRCDQPFLLGECSTFKFRFSRVAKELYAEKVRSREVKERESMYPEAILNKQPVSFDHRYRLQTEFEAIAGTITLGKSKILWLSQEKGHLHWIFVTTKNVDVYSSKIPESPERHRLLCQDFPVQASQEPLSEYSNRWSGVSREIYNWEVRRMSTSTSFPHPYTGESQERSLSRQSNLITHPPQHW”: “failed”. The same measure for “MAMWVFGYGSLIWKTGFPFDESLPGFIKGYRRVFHQGSTDHRGTPDFPGRTVTLEAAHEEHLEVREKQYDQKEYLDFFTDSNASEPAVAGVMVYIASPDKKSNNNYLGPAPLEDIAKQIVKAKGPSGPNRDYLFNLEEALAQLGFKDKHVTDLANQVRHILSESEELDIDATAATANNV”: “failed”.

For “MANDKRTSPPTPRQPAKGGAAGKRQGHAAEGTRKPRARGEERKEKPADGRSATALTANERREIDDKQPPRAAVLHEVIRVQGEHELQRTLAALWWSAVAAGLTIGLSLMGMGLFRAALPEQEWAIIVSSFGYPMGFLAVILARQQLFTENTLTAVLPVMTEPTLEKAWQLLRLWSVVLFGNIVGTLLFAWAVLHLPIFNEAADAAFLEIGREVMHNDLAQMFAKGIVSGWMIATMVWLIPAAEGAKIWIIAMVTYLMALGSFTHIVVGSAEVGYLAFAGEIGWAEFLLKFALPTLGGNIVGGSLIFALISHAQIRSEG”, the protein production result is recorded as “failed”.
